Patent US20240252614A1 (Pfizer, published 2024)

Tests used:
hMPV085 = biological target: T1, hMPV085 (hMPV A, UniProt Q6WB98 19-102); test: BLI, 53C stress
T1 construct: T411C-Q434C, L141C-A161C, A459P
Protocol: (§1) The OCTET HTX (Sartorius, Gottingen, Germany) instrument was used to evaluate the expression and conformational integrity for each mutant. All measurements were conducted at 30° C. temperature in 96-well black plates (Corning, Corning, NY) with a final volume of 240 μL per well at a constant agitation rate of 1000 RPM.
(§2) Conformation integrity of hMPV A F protein mutants were evaluated by thermal stress experiments. Crude cell culture supernatants were normalized based on the results of the titer quantitation and then incubated for 1 hour at room temperature and two higher temperatures. […] Anti-Human IgG Fc Capture (AHC) biosensors were first equilibrated in PB before being dipped into more PB to establish the initial baseline. […] The mAb-bound biosensors were then dipped into the thermal stressed cell culture supernatants for 5 minutes. The kinetics analysis was done by OCTET data analysis software (version 12.0, Sartorius) based on curve fitting of the entire associate step.

hMPV097 = biological target: T2, hMPV097 (hMPV A, UniProt Q6WB98 19-102); test: BLI, 53C stress
T2 construct: T411C-Q434C, E146C-T160C, A459P, G239A, T49I, S149T, T365I
Protocol: as §1, §2

hMPV090 = biological target: T3, hMPV090 (hMPV A, UniProt Q6WB98 19-102); test: BLI, 53C stress
T3 construct: T411C-Q434C, L141C-A161C, A459P, G239A, T49I, S149T, T365I
Protocol: as §1, §2

hMPV079 = biological target: T4, hMPV079 (hMPV A, UniProt Q6WB98 19-102); test: BLI, 53C stress
T4 construct: T411C-Q434C, A140C-S149C, A459P
Protocol: as §1, §2

hMPV088 = biological target: T5, hMPV088 (hMPV A, UniProt Q6WB98 19-102); test: BLI, 53C stress
T5 construct: T411C-Q434C, L141C-A161C, G239A
Protocol: as §1, §2

hMPV083 = biological target: T6, hMPV083 (hMPV A, UniProt Q6WB98 19-102); test: BLI, 53C stress
T6 construct: T411C-Q434C, A140C-S149C, A459P, G239A, T49I, T365I
Protocol: as §1, §2

hMPV084 = biological target: T7, hMPV084 (hMPV A, UniProt Q6WB98 19-102); test: BLI, 53C stress
T7 construct: T411C-Q434C, L141C-A161C
Protocol: as §1, §2

hMPV A F WT Control = hMPV A F WT Control (hMPV A, UniProt Q6WB98 19-102); test: BLI, 53C stress
Protocol: as §1, §2

hMPV081 = biological target: T8, hMPV081 (hMPV A, UniProt Q6WB98 19-102); test: BLI, 53C stress
T8 construct: T411C-Q434C, A140C-S149C, T365I
Protocol: as §1, §2

hMPV135 = biological target: T9, hMPV135 (hMPV B, UniProt Q6WB98 19-102); test: BLI, no stress
T9 construct: T49I, S149T, A459P

hMPV124 = biological target: T10, hMPV124 (hMPV B, UniProt Q6WB98 19-102); test: BLI, no stress
T10 construct: L141C-A161C, T411C-Q434C, A459P

hMPV127 = biological target: T11, hMPV127 (hMPV B, UniProt Q6WB98 19-102); test: BLI, no stress
T11 construct: A140C-S149C, G239A, T411C-Q434C, A459P

hMPV129 = biological target: T12, hMPV129 (hMPV B, UniProt Q6WB98 19-102); test: BLI, no stress
T12 construct: T49I, A140C-S149C, G239A, T365I, T411C-Q434C, A459P

hMPV138 = biological target: T13, hMPV138 (hMPV B, UniProt Q6WB98 19-102); test: BLI, no stress
T13 construct: T49I, A140C-S149C, A459P

hMPV136 = biological target: T14, hMPV136 (hMPV B, UniProt Q6WB98 19-102); test: BLI, no stress
T14 construct: A140C-S149C, A459P

hMPV126 = biological target: T15, hMPV126 (hMPV B, UniProt Q6WB98 19-102); test: BLI, no stress
T15 construct: T49I, T150C-R156C, G239A, A459P

hMPV121 = biological target: T16, hMPV121 (hMPV B, UniProt Q6WB98 19-102); test: BLI, no stress
T16 construct: L141C-A161C, T411C-Q434C

hMPV118 = biological target: T17, hMPV118 (hMPV B, UniProt Q6WB98 19-102); test: BLI, no stress
T17 construct: T49I, T150C-R156C

hMPV117 = biological target: T18, hMPV117 (hMPV B, UniProt Q6WB98 19-102); test: BLI, no stress
T18 construct: T150C-R156C, A459P

hMPV134 = biological target: T19, hMPV134 (hMPV B, UniProt Q6WB98 19-102); test: BLI, no stress
T19 construct: T49I, L141C-A161C, S149T, G239A, T365I, T411C-Q434C, A459P

hMPV133 = biological target: T20, hMPV133 (hMPV B, UniProt Q6WB98 19-102); test: BLI, no stress
T20 construct: T49I, L141C-A161C, S149T, G239A, T411C-Q434C, A459P

hMPV105 = biological target: T21, hMPV105 (hMPV B, UniProt Q6WB98 19-102); test: BLI, 56C stress
T21 construct: G239A
Protocol: (§3) All measurements were conducted at 30° C. temperature in 96-well black plates (Corning, Corning, NY) with a final volume of 240 μL per well at a constant agitation rate of 1000 RPM.
(§4) Conformation integrity of hMPV B F protein mutants were evaluated by a thermal stress experiment. Crude cell culture supernatants were normalized based on the results of the titer quantitation and then incubated for 1 hour at room temperature and two higher temperatures. For the testing of hMPV B single mutants, the two temperatures were 53° C. and 56° C. After the incubation, the protein mutants were probed with prefusion specific monoclonal antibody hMPV-2 by OCTET HTX. Anti-Human IgG Fc Capture (AHC) biosensors were first equilibrated in PB before being dipped into more PB for to establish the initial baseline. Biosensors were incubated with hMPV-2 before being equilibrated in PB to establish the experimental baseline. The mAb-bound biosensors were then dipped into the thermal stresses cell culture supernatants for 5 minutes.

hMPV103 = biological target: T22, hMPV103 (hMPV B, UniProt Q6WB98 19-102); test: BLI, 56C stress
T22 construct: E146C-T160C
Protocol: as §3, §4

hMPV107 = biological target: T23, hMPV107 (hMPV B, UniProt Q6WB98 19-102); test: BLI, 56C stress
T23 construct: S149T
Protocol: as §3, §4

hMPV100 = biological target: T24, hMPV100 (hMPV B, UniProt Q6WB98 19-102); test: BLI, 56C stress
T24 construct: T411C-Q434C
Protocol: as §3, §4

hMPV106 = biological target: T25, hMPV106 (hMPV B, UniProt Q6WB98 19-102); test: BLI, 56C stress
T25 construct: T49I
Protocol: as §3, §4

hMPV104 = biological target: T26, hMPV104 (hMPV B, UniProt Q6WB98 19-102); test: BLI, 56C stress
T26 construct: A459P
Protocol: as §3, §4

hMPV102 = biological target: T27, hMPV102 (hMPV B, UniProt Q6WB98 19-102); test: BLI, 56C stress
T27 construct: L141C-A161C
Protocol: as §3, §4

hMPV B F WT Control = hMPV B F WT Control (hMPV B, UniProt Q6WB98 19-102); test: BLI, 56C stress
Protocol: as §3, §4

hMPV101 = biological target: T28, hMPV101 (hMPV B, UniProt Q6WB98 19-102); test: BLI, 56C stress
T28 construct: A140C-S149C
Protocol: as §3, §4

hMPV108 = biological target: T29, hMPV108 (hMPV B, UniProt Q6WB98 19-102); test: BLI, 56C stress
T29 construct: T365I
Protocol: as §3, §4

B1: hMPV-2 mAb (antibody, V domains shown)
VH: QVQLQQSGAEVKKPGASVKVSCKASGYTFTSYGISWVRQAPGQGLEWMGWISGYNGNTNYAQTFQGTFTMTTDTSTSTAYMELRRLRSGDTAVYYCARDRYYASGSYNGMDVWGQGTTVTVSS
VL: QSALTQPPSASGAPGQRVTVSCSGSSSNVGSSSVYWYQQLPGTAPKLLIYRNNQRPSGVPDRFSGSKSGTSASLAISGLRSEDEADYYCAAWDDSLSGWVFGGGTKLTVLG
notes: human IgG1
In the case of B1, the “Response Shift” value (hMPV085) is reported as 0.672 nm, the “Response Shift” value (hMPV097) is reported as 0.82 nm and the “Response Shift” value (hMPV090) is reported as 0.815 nm. For the same binder, the “Response Shift” value (hMPV079) was 0.73 nm, the “Response Shift” value (hMPV088) was 0.816 nm and the “Response Shift” value (hMPV083) was 0.755 nm. The “Response Shift” value (hMPV084) was 0.776 nm, the “Response Shift” value (hMPV A F WT Control) was -0.014 nm and the “Response Shift” value (hMPV081) was 0.778 nm. The “Response Shift” value (hMPV135) was 0.73 nm, the “Response Shift” value (hMPV124) was 0.833 nm and the “Response Shift” value (hMPV127) was 0.719 nm. For the same binder, the “Response Shift” value (hMPV129) was 0.687 nm, the “Response Shift” value (hMPV138) was 0.681 nm and the “Response Shift” value (hMPV136) was 0.591 nm. For the same binder, the “Response Shift” value (hMPV126) was 0.773 nm, the “Response Shift” value (hMPV121) was 0.842 nm and the “Response Shift” value (hMPV118) was 0.844 nm. For the same binder, the “Response Shift” value (hMPV117) was 0.723 nm, the “Response Shift” value (hMPV134) was 0.718 nm and the “Response Shift” value (hMPV133) was 0.677 nm. The “Response Shift” value (hMPV105) was 0.064 nm, the “Response Shift” value (hMPV103) was 0.041 nm and the “Response Shift” value (hMPV107) was 0.519 nm. For the same binder, the “Response Shift” value (hMPV100) was 0.779 nm, the “Response Shift” value (hMPV106) was 0.397 nm and the “Response Shift” value (hMPV104) was -0.11 nm. The “Response Shift” value (hMPV102) was 0.007 nm, the “Response Shift” value (hMPV B F WT Control) was 0.005 nm and the “Response Shift” value (hMPV101) was 0.649 nm. For the same binder, the “Response Shift” value (hMPV108) was 0.04 nm.
